Experimental data from patent US20180140689A1 (PROBIODRUG, published 2018).
Numbering of substitutions follows the chain as printed. Non-standard residues stand in square brackets, D forms with d. No end group written: not given here. pGlu = O=C1CC[C@@H](C(=O)O)N1

T1: human Aβ pE3-18 peptide, pEFRHDSGYEVHHQKLV (human)
T1 construct: The range 3-18 counts on the Aβ peptide; also called pE3-Aβ18; pE3-Aβ peptide
T1 peptide: [pGlu]FRHDSGYEVHHQKLV

B1: humanized antibody clone #6 sequence variant VH: SEQ ID NO: 27, VL: SEQ ID NO: 14 (antibody, human IgG1, V domains shown)
VH: QVQLVQSGAEVKKSGASVKVSCKASGYSFTGHTMNWVRQAPGQGLEWMGLINPSNGVTRYNQKFQGRVTITRDTSTTTVHMELTSLTSEDTATYYCTREAKREWDETYWGQGTLVTVSS
VL: DVVMTQSPLSLPVTLGQPASISCKSSQSLLYSDGKTYLNWFQQRPGQSPRRLTYLVSKLDSGVPDRFSGSGSGTDFTLKISRVEAEDVGVYYCVQGTHFPFTFGGGTKVEIK
B2: humanized antibody clone #6 sequence variant VH: SEQ ID NO: 27, VL: SEQ ID NO: 13 (antibody, human IgG1, V domains shown)
VH: B1 VH
VL: B1 VL with T53A
B3: humanized antibody clone #6 sequence variant VH: SEQ ID NO: 70, VL: SEQ ID NO: 14 (antibody, human IgG1, V domains shown)
VH: B1 VH with G56E
VL: B1 VL
B4: humanized antibody clone #6 sequence variant VH: SEQ ID NO: 27, VL: SEQ ID NO: 15 (antibody, human IgG1, V domains shown)
VH: B1 VH
VL: B1 VL with Y31H
B5: humanized antibody clone #6 sequence variant VH: SEQ ID NO: 24, VL: SEQ ID NO: 14 (antibody, human IgG1, V domains shown)
VH: B1 VH with T93V
VL: B1 VL

Biological target: T1, human Aβ pE3-18 peptide, …
Assay: SPR, 1:1 Langmuir fit
Method: First a polyclonal α-human antibody was coupled to an SPR-Chip subsequent loaded with the humanized antibody until the Response Unit was more than 1000.
Kinetic measurement was performed at different concentrations (of 5 to 1000 nM) of AβpE3-18-peptide. The graphs of the measured series are shown as an overlay plot with the sensorgrams, corrected by the sensogram measuring the running buffer, aligned at the time of injection and the baseline adjusted to zero before injection. The results are evaluated according to a simple 1:1 interaction model (Langmuir fit), which promote the koff and kₒₙ rate constants.

| Kd [nM] | koff [s⁻¹] | kon [M⁻¹ s⁻¹] | Molecule |
| --- | --- | --- | --- |
| 5.09 | 0.00323 | 635000 | B1 |
| 7.35 | 0.00413 | 562000 | B2 |
| 8.43 | 0.00357 | 423000 | B3 |
| 15.5 | 0.00415 | 267000 | B4 |
| 9.36 | 0.00576 | 616000 | B5 |

biological target: full length human CD32A on CHO cells (human) (UniProt P12318); assay: FACS on CHO cells stably expressing full length human CD32A, bound antibody detected with fluorochrome-conjugated anti-Fab'
Sequence (P12318 34-317): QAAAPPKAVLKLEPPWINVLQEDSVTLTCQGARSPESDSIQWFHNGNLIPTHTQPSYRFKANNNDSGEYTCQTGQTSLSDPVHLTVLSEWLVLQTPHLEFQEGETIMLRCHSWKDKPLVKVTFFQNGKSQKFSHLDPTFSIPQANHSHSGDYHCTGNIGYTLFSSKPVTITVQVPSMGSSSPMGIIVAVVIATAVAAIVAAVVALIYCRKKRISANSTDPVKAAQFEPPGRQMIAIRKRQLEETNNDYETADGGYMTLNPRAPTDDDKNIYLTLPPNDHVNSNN

| EC50 (read off the curve) [nM] | Molecule |
| --- | --- |
| 100 | antibody comprising the human IgG1 Fc wild-type region of SEQ ID NO: 73 |
| 100 | antibody comprising the K324A mutant variant of the human IgG1 Fc region (SEQ ID NO: 74) |
